Reference: patent publication JP2023053786A (dated 2023)

Assays:
[1] = molecular target: T1, HBs抗原(Prosec Tany Technology Ltd. HBS 875), biotinylated (Hepatitis B virus (adr型), UniProt P03140 175-400, biotinylated with EZ-Link NHS-PEG4-biotin (sites not given)); experiment: BLI (Octet RED96e), biotinylated HBs antigen on streptavidin sensor, antibody in solution
T1 construct: also called ビオチン化HBs抗原; adr型HBs抗原(PROSPEC社製)
T1 chain: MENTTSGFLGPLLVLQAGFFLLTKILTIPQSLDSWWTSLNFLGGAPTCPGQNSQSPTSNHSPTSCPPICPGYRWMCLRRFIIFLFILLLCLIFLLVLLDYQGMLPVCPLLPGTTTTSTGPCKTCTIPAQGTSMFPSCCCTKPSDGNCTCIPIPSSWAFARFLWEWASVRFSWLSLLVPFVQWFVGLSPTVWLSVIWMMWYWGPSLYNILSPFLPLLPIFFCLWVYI

[2] = molecular target: T1, HBs抗原(Prosec Tany Technology Ltd. HBS …; experiment: BLI (Octet), as in Example 3: biotinylated HBs antigen on streptavidin sensor

Row | Binder | Kd [1] | Kd [2]
1 | クローンHB351 (mouse monoclonal HBs antigen-binding antibody) (antibody, V domains shown, Mouse hybridoma antibody; The 91/92 assignment follows the order HB351, HB1170, HB1215 = (1), (2), (3); also called HB351; クローン351) VH: EIQLQQSGAELVKPGASVKLSCTASGFNIKDTYMYWVKQRPEQGLEWIGRIDPANGDTKYDPNFQGKATITADPSSNTAYLQLTSLTSEDTAVYYCARDDYDGAMDYWGRGTSVTVSS VL: QIVLTQSPAIMSASPGERVTMTCSASSTVNYMYWYQQKPGSSPRLLNFDTSNLASGVPVRFSGSGSGTSYSLTISRMEAEDAATYYCQRWSTYPPITFGSGTKLEIK | ~300 pM | –
2 | ヒト化HB1170 (antibody, V domains shown, also called humanized HB1170; ヒト化したモノクローナル抗体HB1170) VH: QVQLVQSGSELKKPGASVKVSCKASGYTFTDFSMHWVRQAPGQGLKWMGWIDTETGEPTNADDFKGRFVFSLDTSVSTAYLQISSLKAEDTAVYYCARKDYELGTWFVYWGQGTTVTVSS VL: DIQMTQSPSSLSASVGDRVTITCRASQDISNFLNWYQQKPGKAPKLLIYYTSRLHSGVPSRFSGSGSGTDYTLTISSLQPEDFATYYCQQGKTLPRTFGGGTKVEIK | – | ~3000 pM
3 | クローンHB1170 (mouse monoclonal HBs antigen-binding antibody) (antibody, V domains shown, Mouse hybridoma antibody; also called HB1170; HB1170クローン) VH: QIQLVQSGPELKKPGETVKISCKASGYTFTDFSMHWVKQAPGKGLKWMGWIDTETGEPTNADDFKGRFVFSLETSASAAYLQIHNLKNDDTATYFCARKDYELGTWFVYWGQGTLVTVST VL: DIQMTQTTSSLSASLGDRVTISCRASQDISNFLNWYQQKPDGTVKLLIYYTSRLHSGVPSRFSGSGSGTDYSLTISNLEQEDFATYFCQQGKTLPRTFGGGTILEIK | ~3000 pM | –
4 | クローンHB1215 (mouse monoclonal HBs antigen-binding antibody) (antibody, V domains shown, Mouse hybridoma antibody; also called HB1215; HB1215クローン) VH: QVQLKQSGPGLVQPSQSLSLTCTVSGFSLATYGVQWVRQSPGKGLEWLGVIWRGGNTDYNAAFMSRLSITKDNSKSQVFFKMNSLQGDDTAIYYCAKATYFDVWGAGTTVTVSS VL: QAVVTQESALTTSPGETVTLTCRSSTGAVTTSNFANWVQEKPDHLFTGLIGDTNNRAPGVPARFSGSLIGDKAALTITGAQTEDEAIYFCALWYNNWVFGGGTKLTVL | ~300 pM | –
5 | ヒト化HB351 (antibody, V domains shown, also called humanized HB351; ヒト化したモノクローナル抗体HB351) VH: EVQLVQSGAEVKKPGATVKISCKVSGFNIKDTYMYWVQQAPGKGLEWIGRIDPANGDTKYDPNFQGRVTITADTSTDTAYMELSSLRSEDTAVYYCARDDYDGAMDYWGQGTLVTVSS VL: EIVLTQSPATLSLSPGERATLSCSASSTVNYMYWYQQKPGQAPRLLNFDTSNLASGIPARFSGSGSGTDFTLTISSLEPEDFAVYYCQRWSTYPPITFGQGTKLEIK | – | ~300 pM
